# In article doi:10.1101/2024.01.17.576111:
# Molecular target: PbrSYP71ΔTM-His (lacking TM domain of PbrSYP71) (Pyrus bretschneideri)
# Assay: MST
substance,measurement,value
"F-actin (Pre-formed Actin Filaments, rabbit skeletal muscle actin) (from UniProt P68135 1-377) (natural protein)",Kd,185 nM
